Assay results as given in the supplement of paper PMC9732359.
± gives the uncertainty stated by the source.

Experiment: protein stability index of a GFP-peptide fusion (yeast GPS) (PSI 1-4); higher = more stable; sorted into four equal gates, so the index is relative within each strain
Procedure, shortened: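 Plasmids in a pooled yeast library fused tiled 17-residue yeast protein peptides downstream of GFP and also expressed Cherry. Mid-log cultures grown without leucine were sorted into four equal gates by GFP/Cherry fluorescence ratio. Each gate's plasmids were PCR-amplified and Illumina-sequenced, and reads were matched to strains by barcodes. The protein stability index is derived by multiplying each gate's read frequency by its gate number and summing the results.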

Sequence: TDCKFIRVSGAELVQKY [RPT6]
- protein stability index (doa10∆): 3.01 ± 0.14
- protein stability index (pdr5∆): 3.24 ± 0.16
- protein stability index (san1∆): 3.16 ± 0.15
- protein stability index (ubr1∆): 2.93 ± 0.11

Sequence: EDEFIVQHDQILVMETS [SWP82]
- protein stability index (doa10∆): 2.95 ± 0.069
- protein stability index (pdr5∆): 2.54 ± 0.063
- protein stability index (san1∆): 2.33 ± 0.082
- protein stability index (ubr1∆): 2.98 ± 0.048

Sequence: MNLQNNVLNQIHQILLP [CSE2]
- protein stability index (doa10∆): 2.73 ± 0.062
- protein stability index (pdr5∆): 2.73 ± 0.071
- protein stability index (san1∆): 2.24 ± 0.12
- protein stability index (ubr1∆): 3.21 ± 0.12

Sequence: SKEKANFLETIASTEKP [SIR4]
- protein stability index (doa10∆): 2.26 ± 0.069
- protein stability index (pdr5∆): 2.28 ± 0.055
- protein stability index (san1∆): 2.04 ± 0.1
- protein stability index (ubr1∆): 2.64 ± 0.058

Sequence: DYSKPNLPPHYALFLKA [SSN2]
- protein stability index (doa10∆): 2.15 ± 0.07
- protein stability index (pdr5∆): 2.03 ± 0.073
- protein stability index (san1∆): 1.78 ± 0.11
- protein stability index (ubr1∆): 1.99 ± 0.056

Sequence: MEELGIVTPVEKAVEEK [RPT3]
- protein stability index (pdr5∆): 1.11 ± 0.094
- protein stability index (ubr1∆): 1.47 ± 0.17

Sequence: NALTVGDFDKFDSLIKV [RPN9]
- protein stability index (doa10∆): 2.14 ± 0.13
- protein stability index (pdr5∆): 1.59 ± 0.11
- protein stability index (san1∆): 1.3 ± 0.14
- protein stability index (ubr1∆): 1.3 ± 0.11

Sequence: KVLRKFRVQSQSNYGIY [NUT1]
- protein stability index (doa10∆): 1.85 ± 0.053
- protein stability index (pdr5∆): 2.29 ± 0.071
- protein stability index (san1∆): 1.34 ± 0.11
- protein stability index (ubr1∆): 2.3 ± 0.14

Sequence: TAKETKMLMNLHKEQWQ [RPN11]
- protein stability index (doa10∆): 3.28 ± 0.097
- protein stability index (pdr5∆): 3.36 ± 0.082
- protein stability index (san1∆): 3.5 ± 0.036
- protein stability index (ubr1∆): 3.42 ± 0.068

Sequence: EENSSSNGNNLPLNKPR [RGR1]
- protein stability index (doa10∆): 3.24 ± 0.044
- protein stability index (pdr5∆): 3.29 ± 0.044
- protein stability index (san1∆): 3.2 ± 0.041
- protein stability index (ubr1∆): 3.26 ± 0.045

Sequence: DHASIRRGYQVYREVCA [CYT1]
- protein stability index (doa10∆): 1.87 ± 0.06
- protein stability index (pdr5∆): 1.5 ± 0.052
- protein stability index (san1∆): 1.27 ± 0.09
- protein stability index (ubr1∆): 1.71 ± 0.036

Sequence: VQGLLQNAAANAEAKGL [RPL17A]
- protein stability index (doa10∆): 2.3 ± 0.094
- protein stability index (pdr5∆): 2.76 ± 0.1
- protein stability index (san1∆): 2.06 ± 0.1
- protein stability index (ubr1∆): 2.4 ± 0.12

Sequence: TTQGGLTSVTRHGFNRS [RPO21]
- protein stability index (doa10∆): 3.14 ± 0.088
- protein stability index (pdr5∆): 3.04 ± 0.08
- protein stability index (san1∆): 3.15 ± 0.077
- protein stability index (ubr1∆): 3.26 ± 0.071

Sequence: YENIPIYATFLNESDCL [YDL116W/NUP84]
- protein stability index (doa10∆): 2.16 ± 0.098
- protein stability index (pdr5∆): 2.54 ± 0.15
- protein stability index (san1∆): 2.15 ± 0.15
- protein stability index (ubr1∆): 2.62 ± 0.1

Sequence: QAVETVGQAGRPKKITG [RPN1]
- protein stability index (doa10∆): 1.99 ± 0.06
- protein stability index (pdr5∆): 2.74 ± 0.095
- protein stability index (san1∆): 2.31 ± 0.12
- protein stability index (ubr1∆): 2.45 ± 0.056

Sequence: RTTTNTTAEPKAKRAKT [TAF14]
- protein stability index (doa10∆): 2.67 ± 0.28
- protein stability index (pdr5∆): 2.98 ± 0.25
- protein stability index (san1∆): 3.1 ± 0.088
- protein stability index (ubr1∆): 2.59 ± 0.2

Sequence: QAIAKNNPQVVNAITVA [SNF5]
- protein stability index (doa10∆): 1.85 ± 0.039
- protein stability index (pdr5∆): 2.02 ± 0.043
- protein stability index (san1∆): 1.63 ± 0.05
- protein stability index (ubr1∆): 1.61 ± 0.036

Sequence: PSYYYYVDPETTYTYQQ [ROX3]
- protein stability index (doa10∆): 2.93 ± 0.075
- protein stability index (pdr5∆): 3.09 ± 0.079
- protein stability index (san1∆): 2.85 ± 0.053
- protein stability index (ubr1∆): 3.16 ± 0.07

Sequence: QIAFDLVSSASQQLLEI [RPN2]
- protein stability index (doa10∆): 2.22 ± 0.068
- protein stability index (pdr5∆): 2.17 ± 0.063
- protein stability index (san1∆): 1.66 ± 0.11
- protein stability index (ubr1∆): 1.69 ± 0.072

Sequence: DIDDILKKGEQKTQELN [ISW2]
- protein stability index (doa10∆): 3.31 ± 0.22
- protein stability index (pdr5∆): 3.21 ± 0.1
- protein stability index (san1∆): 3.44 ± 0.099
- protein stability index (ubr1∆): 3.56 ± 0.092

Sequence: FSFGAKANEKKESDESK [YJL041W/NSP1]
- protein stability index (doa10∆): 2.58 ± 0.12
- protein stability index (pdr5∆): 3.38 ± 0.089
- protein stability index (san1∆): 3.52 ± 0.078
- protein stability index (ubr1∆): 3.18 ± 0.18

Sequence: PLGILHIPICVTFSFFN [RRP45]
- protein stability index (doa10∆): 1.29 ± 0.05
- protein stability index (pdr5∆): 1.26 ± 0.06
- protein stability index (san1∆): 1.2 ± 0.096
- protein stability index (ubr1∆): 1.12 ± 0.045

Sequence: AAIWTLCKTKMVCETDV [RPO21]
- protein stability index (doa10∆): 1.55 ± 0.059
- protein stability index (pdr5∆): 1.69 ± 0.057
- protein stability index (san1∆): 1.44 ± 0.1
- protein stability index (ubr1∆): 1.47 ± 0.034

Sequence: RKPILLPDPKPLPLDLN [ITC1]
- protein stability index (doa10∆): 2.34 ± 0.044
- protein stability index (pdr5∆): 2.55 ± 0.045
- protein stability index (san1∆): 2.52 ± 0.065
- protein stability index (ubr1∆): 2.14 ± 0.04

Sequence: SAKNRVVILARAKALGI [RPL32]
- protein stability index (doa10∆): 1.69 ± 0.05
- protein stability index (pdr5∆): 1.74 ± 0.061
- protein stability index (san1∆): 1.76 ± 0.081
- protein stability index (ubr1∆): 2.05 ± 0.042

Sequence: HLSSKTGLHFGRLSLRS [QCR10]
- protein stability index (doa10∆): 3.24 ± 0.2
- protein stability index (pdr5∆): 3.06 ± 0.11
- protein stability index (san1∆): 3.06 ± 0.11
- protein stability index (ubr1∆): 3.14 ± 0.12
